Measurements taken from PMC2275084.

T1: N519 (Tetrahymena thermophila, UniProt O77448 1-519)
T1 sequence: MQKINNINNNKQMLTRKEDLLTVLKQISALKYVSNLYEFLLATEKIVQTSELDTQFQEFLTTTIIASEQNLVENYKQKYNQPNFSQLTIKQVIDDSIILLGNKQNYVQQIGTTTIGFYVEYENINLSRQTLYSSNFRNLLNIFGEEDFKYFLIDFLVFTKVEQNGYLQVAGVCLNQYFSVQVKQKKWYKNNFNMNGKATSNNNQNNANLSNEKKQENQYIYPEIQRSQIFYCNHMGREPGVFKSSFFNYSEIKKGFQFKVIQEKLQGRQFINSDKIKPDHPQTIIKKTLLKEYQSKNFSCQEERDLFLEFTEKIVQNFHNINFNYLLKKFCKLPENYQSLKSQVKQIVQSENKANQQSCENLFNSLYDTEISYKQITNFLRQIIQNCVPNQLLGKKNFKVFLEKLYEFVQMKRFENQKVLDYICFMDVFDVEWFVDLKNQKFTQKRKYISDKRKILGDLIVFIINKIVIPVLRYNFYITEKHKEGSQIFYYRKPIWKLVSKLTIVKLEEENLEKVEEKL

T2: C598 (Tetrahymena thermophila, UniProt O77448 520-1117)
T2 sequence: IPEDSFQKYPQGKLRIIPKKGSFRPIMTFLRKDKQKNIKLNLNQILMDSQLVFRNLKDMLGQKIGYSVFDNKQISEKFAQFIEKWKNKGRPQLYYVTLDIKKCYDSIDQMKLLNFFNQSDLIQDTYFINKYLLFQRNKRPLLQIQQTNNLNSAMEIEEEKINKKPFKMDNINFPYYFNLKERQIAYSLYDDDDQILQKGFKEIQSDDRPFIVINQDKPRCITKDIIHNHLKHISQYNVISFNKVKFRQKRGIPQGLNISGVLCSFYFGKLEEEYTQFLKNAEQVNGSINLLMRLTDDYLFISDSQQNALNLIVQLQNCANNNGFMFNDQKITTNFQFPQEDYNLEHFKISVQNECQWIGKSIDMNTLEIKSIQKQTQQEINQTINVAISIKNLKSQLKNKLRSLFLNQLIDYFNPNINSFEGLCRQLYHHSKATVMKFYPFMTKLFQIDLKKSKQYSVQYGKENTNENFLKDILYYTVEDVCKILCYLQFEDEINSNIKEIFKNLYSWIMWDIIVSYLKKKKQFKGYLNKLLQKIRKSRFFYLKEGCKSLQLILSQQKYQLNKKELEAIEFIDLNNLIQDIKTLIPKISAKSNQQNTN

T3: TEN domain (E. coli) (Tetrahymena thermophila, UniProt O77448 2-191)
T3 sequence: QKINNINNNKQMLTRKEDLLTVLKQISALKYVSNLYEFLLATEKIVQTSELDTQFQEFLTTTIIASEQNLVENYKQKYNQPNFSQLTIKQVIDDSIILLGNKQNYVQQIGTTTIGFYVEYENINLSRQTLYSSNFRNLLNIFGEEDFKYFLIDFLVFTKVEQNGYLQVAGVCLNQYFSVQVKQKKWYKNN

T4: TERT deltaC233 (Tetrahymena thermophila, UniProt O77448 1-884)
T4 sequence: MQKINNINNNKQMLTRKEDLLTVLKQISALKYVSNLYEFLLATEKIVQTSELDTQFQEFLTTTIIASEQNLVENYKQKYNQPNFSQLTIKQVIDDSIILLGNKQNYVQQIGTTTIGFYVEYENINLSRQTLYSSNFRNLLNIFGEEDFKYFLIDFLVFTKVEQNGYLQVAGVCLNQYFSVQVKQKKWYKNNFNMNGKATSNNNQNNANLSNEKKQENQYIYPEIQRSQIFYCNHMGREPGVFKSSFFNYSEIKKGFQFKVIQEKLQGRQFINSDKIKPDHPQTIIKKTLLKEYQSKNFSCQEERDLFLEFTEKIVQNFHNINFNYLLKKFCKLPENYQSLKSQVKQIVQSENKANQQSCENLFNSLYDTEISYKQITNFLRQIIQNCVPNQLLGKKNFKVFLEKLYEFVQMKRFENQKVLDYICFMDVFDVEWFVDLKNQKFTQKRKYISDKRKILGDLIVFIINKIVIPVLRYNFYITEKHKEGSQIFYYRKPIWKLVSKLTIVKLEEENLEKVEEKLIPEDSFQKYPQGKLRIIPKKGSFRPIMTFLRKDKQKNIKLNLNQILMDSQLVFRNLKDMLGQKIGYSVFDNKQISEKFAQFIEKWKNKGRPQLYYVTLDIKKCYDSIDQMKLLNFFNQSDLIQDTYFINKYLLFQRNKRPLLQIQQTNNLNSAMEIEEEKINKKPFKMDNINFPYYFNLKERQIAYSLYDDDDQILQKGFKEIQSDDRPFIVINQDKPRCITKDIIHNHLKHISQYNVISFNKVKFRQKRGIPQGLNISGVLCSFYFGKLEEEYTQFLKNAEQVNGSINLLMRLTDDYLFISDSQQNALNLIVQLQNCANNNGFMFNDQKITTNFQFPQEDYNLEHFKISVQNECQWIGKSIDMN

T5: TERT deltaTEN (Tetrahymena thermophila, UniProt O77448 192-1117)
T5 sequence: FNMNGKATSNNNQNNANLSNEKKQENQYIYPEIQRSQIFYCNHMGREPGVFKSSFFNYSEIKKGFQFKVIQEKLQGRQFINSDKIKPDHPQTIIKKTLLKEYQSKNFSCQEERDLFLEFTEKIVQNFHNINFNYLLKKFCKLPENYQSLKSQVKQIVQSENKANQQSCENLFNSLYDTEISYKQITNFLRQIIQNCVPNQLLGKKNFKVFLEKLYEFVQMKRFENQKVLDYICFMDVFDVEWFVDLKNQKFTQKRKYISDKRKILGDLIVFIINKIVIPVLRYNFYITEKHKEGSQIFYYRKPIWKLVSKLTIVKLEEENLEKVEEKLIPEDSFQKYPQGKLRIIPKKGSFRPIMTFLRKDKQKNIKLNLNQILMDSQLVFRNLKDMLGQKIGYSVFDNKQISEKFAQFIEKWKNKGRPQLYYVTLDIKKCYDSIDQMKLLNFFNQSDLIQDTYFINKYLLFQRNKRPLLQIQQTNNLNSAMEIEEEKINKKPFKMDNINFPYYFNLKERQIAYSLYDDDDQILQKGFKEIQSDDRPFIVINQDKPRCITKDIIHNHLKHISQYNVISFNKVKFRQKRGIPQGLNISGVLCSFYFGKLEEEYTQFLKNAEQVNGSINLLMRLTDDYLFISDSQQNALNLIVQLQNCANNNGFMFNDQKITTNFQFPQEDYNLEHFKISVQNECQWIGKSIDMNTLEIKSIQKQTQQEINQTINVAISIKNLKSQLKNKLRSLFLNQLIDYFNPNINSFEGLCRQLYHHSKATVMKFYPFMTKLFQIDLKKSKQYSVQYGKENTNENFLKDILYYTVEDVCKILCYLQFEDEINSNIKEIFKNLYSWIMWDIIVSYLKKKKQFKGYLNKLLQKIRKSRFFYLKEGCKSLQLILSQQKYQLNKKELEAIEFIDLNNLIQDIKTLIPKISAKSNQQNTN

T6: TEN domain (in vitro translated) (Tetrahymena thermophila, UniProt O77448 2-191)
T6 sequence: T3 sequence


What was measured:
N519 [1] = target: T1, N519; test: UV crosslinking
C598 = target: T2, C598; test: UV crosslinking
TEN domain (E. coli) = target: T3, TEN domain (E. coli); test: UV crosslinking
TERT deltaC233 = target: T4, TERT deltaC233; test: NeutrAvidin pull-down
N519 [2] = target: T1, N519; test: NeutrAvidin pull-down
TERT deltaTEN = target: T5, TERT deltaTEN; test: NeutrAvidin pull-down
[3] = target: T6, TEN domain (in vitro translated); test: NeutrAvidin pull-down

Binder	binding result (N519 [1])	binding result (C598)	binding result (TEN domain (E. coli))	binding signal (TERT deltaC233)	binding signal (N519 [2])	binding signal (TERT deltaTEN)	binding result [3]
TTGGGGUTGGGGTTGGGGTT (ssDNA, 5-iodo-dU at position 7) [I(7)20GTT]	binds	binds	binds				
UTGGGGTTGGGGTTGGGGTT (ssDNA, 5-iodo-dU at position 1) [I(1)20GTT]	binds	binds					
GGGGTTGGGGTTGGGGTT (ssDNA, 5' biotin) [Bio-18GTT]				~4 fold higher Kd than full-length TERT	~6 fold lower affinity than full-length TERT	~4 fold higher Kd than full-length TERT	no binding
TTGGGGTTGGGGUTGGGGTT (ssDNA, 5-iodo-dU at position 13) [I(13)20GTT]	binds	binds	binds				
TTGGGGTTGGGGTTGGGGUT (ssDNA, 5-iodo-dU at position 19) [I(19)20GTT]	binds	binds	binds				
